Results: US12558435B2, “Transient inhibition of p53 in gene therapy” (Ospedale San Raffaele S.R.L., priority 2018, dated 2026)

How the values were obtained:
CDKN2A = experiment: TaqMan assay of CDKN2A gene expression; assay type: cell-based, human; conditions: 24 hours post-editing; FIG. 16C-D
CDK2 = experiment: TaqMan assay of CDK2 gene expression; assay type: cell-based, human; conditions: 24 hours post-editing; FIG. 16A-B
human CD34+ cells [1] = experiment: Cell cycle analysis by Hoechst 33342 staining; assay type: cell-based; conditions: for cell cycle states (G1 to S/G2/M): bulk treated cells, 12-24 hours, FIG. 14H
Procedure: Cell cycle was analysed by flow cytometry (CytoFLEX LX; Beckman Coulter) at 12-24 hours post-editing by collecting 0.5-1×10^5 total HSPCs in culture. Cells were washed with PBS+2% FBS and stained by using 10 μg/ml Hoechst 33342 (Sigma-Aldrich) in PBS+2% FBS for 0.5-1 hour in final volume equal to 200 μl.

[2] = system: human CD34+ cells transplanted into NSG mice; experiment: Xenotransplantation of edited human CD34+ cells in NSG mice; assay type: in vivo
Procedure: For transplantation, 3×10^5 CD34+ cells treated for editing at day 5 of culture were injected intravenously into NSG mice after sub-lethal irradiation (150-180 cGy). Sample size was determined by the total number of available treated cells. Mice were attributed to each experimental group randomly. Human CD45+ cell engraftment and the presence of gene-edited cells were monitored by serial collection of blood from the mouse tail and, at the end of the experiment (>20 weeks after transplantation), BM and spleen were harvested and analyzed.
NOD-SCID-IL2Rg^−/− (NSG) mice were purchased from The Jackson Laboratory and were maintained in specific-pathogen-free (SPF) conditions. The procedures involving animals were designed and performed with the approval of the Animal Care and Use Committee of the San Raffaele Hospital (IACUC #749) and communicated to the Ministry of Health and local authorities according to Italian law. For transplantation, 1.5-3×10^5 (for primary) or 2×10^6 (for secondary) CD34^+ treated cells at 24 hours post-editing protocol were injected intravenously into NSG mice after sub-lethal irradiation (180 cGy). Sample size was determined by the total number of available treated cells. Mice were attributed to each experimental group randomly. Human CD45^+ cell engraftment and the percentage of edited GFP^+ cells were monitored by serial collection of blood from the mouse tail over the weeks post-transplantation and at the end of the experiment (18-20 weeks post-transplantation) both spleen and bone-marrow were harvested and analysed.

human CD34+ cells [3] = experiment: Culture (subpopulation) composition of edited CD34+ cells by flow cytometry; assay type: cell-based
Procedure: For immunophenotypic analyses (performed on FACSCanto II; BD Pharmingen), we used the antibodies listed below. Single stained and Fluorescence Minus One stained cells were used as controls. LIVE/DEAD Fixable Dead Cell Stain Kit (Thermo Fisher), 7-aminoactinomycin (Sigma Aldrich), were included in the sample preparation for flow cytometry according to the manufacturer's instructions to exclude dead cells from the analysis. Cell sorting was performed using MoFlo XDP Cell Sorter (Beckman Coulter) or FACSAria Fusion (BD Biosciences).

B1: GSE56: p53 dominant negative peptide (SEQ ID No. 9), transiently overexpressed from electroporated mRNA (protein)
chain: MDGWCPGRDRRTEEENFRKKEEHCPELPPGSAKRALPTSTSSSPQQKKKPLDGEYFTLKIRGRERFEMFRELNEALELKDARAAEESGDSRAHSSYPKIVS
modifications: amino acid sequence of GSE56
CDKN2A expression (CDKN2A): still remained at basal level
CDK2 expression (CDK2): remained always at basal level
percentage of cells in S/G2/M phases (human CD34+ cells [1]; 24 hours after gene editing, FIG. 12A): partially rescued
cell cycle states (G1 to S/G2/M) (human CD34+ cells [1]): lower and not significant
fraction of HDR-edited cells in the PB, average ([2]; 22 weeks post transplantation, IL2RG edited cells, FIG. 4D): 32%
engraftment in the haematopoietic organs ([2]; AAVS1, limited dose T0eq=1.5×10^5/mouse, FIG. 12C): significantly higher engraftment
percentage of human cells in the peripheral blood ([2]; CD40LG-edited cells, FIG. 13B): higher percentage of human cells
percentage of gene correction over time ([2]; CD40LG-edited cells, FIG. 13C): more stable percentage of gene correction over time
percentage of corrected cells in sorted cell types, vs standard ([2]; CD40LG-edited cells, endpoint, included CD34+ cells, FIG. 13E): 3- to 6 fold
differentiation output ([2]; IL2RG edited cells, PB lineages, FIG. 4C): without any skewing in the differentiation output
human CD45+ engraftment ([2]; IL2RG edited cells, PB of NSG mice, FIG. 4B): increased engraftment
engraftment of treated cells ([2]; discussion summary): higher engraftment of treated cells
relative composition of the hematopoietic populations (human CD34+ cells [3]; 3 days post editing, vs untreated controls, FIG. 3E): no change in relative composition

B2: E4orf6/7: adenoviral protein from adenovirus serotype 5 E4 gene (SEQ ID No. 2), delivered as mRNA (protein)
chain: MTTSGVPFGMTLRPTRSRLSRRTPYSRDRLPPFETETRATILEDHPLLPECNTLTMHNAWTSPSPPVKQPQVGQQPVAQQLDSDMNLSELPGEFINITDERLARQETVWNITPKNMSVTHDMMLFKASRGERTVYSVCWEGGGRLNTRVL
modifications: delivered as mRNA; example amino acid sequence of Ad5-E4orf6/7
CDKN2A expression (CDKN2A): significantly up-regulated
CDK2 expression (CDK2): significantly up-regulated
cell cycle states (G1 to S/G2/M) (human CD34+ cells [1]): significant transition from G1 phase to S/G2/M phases
human CD45+ cell engraftment in bloodstream, between groups ([2]; AAVS1, T0eq=3×10^5/mouse, FIG. 17B): did not show any statistical significance
increase of the fraction of circulating edited cells ([2]; AAVS1, T0eq=3×10^5/mouse, primary transplant, FIG. 17C): 1.5 fold
fraction of edited cells (GFP+ or HDR+) in blood, hematopoietic organs and blood lineages ([2]; AAVS1 edited CB CD34+, FIG. 11): significant higher fraction of edited cells
overall level of engraftment of the human cells ([2]; AAVS1 edited CB CD34+, FIG. 11): does not affect the overall level of engraftment
CD90+ fraction in culture composition (human CD34+ cells [3]; 96 hours, FIG. 14E): significant skewing
culture composition (human CD34+ cells [3]; FIG. 10C): without any skew in the culture composition
